Target: chicken MyD88, full length, Flag-tagged (Flag-MyD88), expressed in HEK293T cells (chicken) (UniProt A5HNF6)
Experiment: co-IP; HEK293T cells co-transfected with the indicated plasmids (2 ug/1x10^6 cells), harvested at 30 h; NP-40 lysis buffer; immunoprecipitated by the Flag tag, blotted for HA and Flag tags

Chain of UniProt A5HNF6 (A5HNF6 whole entry): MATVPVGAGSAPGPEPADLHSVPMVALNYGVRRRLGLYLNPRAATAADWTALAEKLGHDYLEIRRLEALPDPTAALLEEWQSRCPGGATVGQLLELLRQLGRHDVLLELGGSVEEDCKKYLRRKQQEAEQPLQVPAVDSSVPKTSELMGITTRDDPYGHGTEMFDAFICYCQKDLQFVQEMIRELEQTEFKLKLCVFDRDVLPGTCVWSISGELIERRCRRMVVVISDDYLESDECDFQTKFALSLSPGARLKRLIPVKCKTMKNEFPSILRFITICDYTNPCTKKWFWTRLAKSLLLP

## VP2-HT: IBDV VP2 with the double mutation Q253H/A284T (VP2 of the rescued HT strain), expressed in HEK293T cells (natural protein)
  fold decrease of interaction compared to VP2: 2.9 fold

Source: publication PMC11957393
